The DeepSol protein solubility set

Assay: soluble on expression in E. coli; label from the status in PepcDB or PDB records

Row | Sequence | soluble on expression in E. coli
1 | MEIALERIYGHRLALPQVGAALLFAQEAPPALLLVPEARLRRYRDLSAFGAKVYVNPGLEALEEKALFVLSYEEALSPFPEDPEAWRLLLEVGRAYPREALLSRLLKLGYARDEDYRVLGEVVELGEVRLEFFGDELERLVVRGEERRRHVLLPKPGKAEGFTSKKVLHFPGPVYLDTPALAPKALWPLLAGRPWVALGGGVELPPLELGARPLPPYRGSLKALEKDLARWLAEGKRVHLFVGHARTLEYLKRRLQAFSPLILDRFPGPKGRLALLPGDFEGGAEWGEWVLLTEALVFATGGVRARVRVGEGLSDPGALSPGDYLIHPEHGVGQYLGLETREVLGVKRDYLVLRYKGEGKLYLPVEQLPLLKRHPGTTDDPPELSSLGKNEWQRAKERARKDVEELAGRLLVLQAKRKATPGRAFPPLPEWDPLVEKGFPYELTPDQKRALEEVLRDLESPHPMDRLVSGDVGFGKTEVALRAAHRVVGHGAQVAFLGPTTLLAEQHGKTFRERFQGLPVRVAVLSRFTPPKEEEAILKGLAEGTVDIVIGTHRLLQEDVRFRDLGLLIVDEEHRFGVAQKERIRELKAEVDTLYLSATPIPRTLYSALVGLKDLSSIQTPPPGRKPIKTFLAPFDPLLVREAILFELERGGKVFYVHDRVASIEARRRFLENLVPEARIGVVHGQMPESLIEETMLLFAEGAYDVLLATTIIEAGLDVPEANTILIERADRLGLATLYQLRGRVGRREEEAYAYLFHPPRLTEAAEKRLAAIADLSDLGSGHLLAERDMEIRGVGNLLGPEQHGHIRALSLEVYTELLEEAIRKLKGEAKEERRHVTLDLALSARLPAEYVGSLEARSRYYSRFAEAKSLAELSRLVRELKERYGPLPEEAENFVALARLRLVAERKGVVSITEGLTHLEVVFPRYPLDYDARGLKGLPYRVELTQYPPGFRLEKKGLRPRDYPEALMEVLYLFADL | soluble
2 | MEIEDGFYLIDDSNHDEDLDFSDFPWLDPDHPLFFPATQANNSKGSTRWDAVNKFSVENWYPHLRKHTFKSHFITLNYNDIHYLMGNIPPDYDSSKLESIFNKILSEFNNKEVFMRLSTRSPKDSKFLFEEASTIMSKDFVYWNENDNKHQQLVSFVASMLKAMKIKSGRKIIETIAQSPRVYNDLLALVSSSNQSDCTTNVILREWHDIRPDHEFRVFVSRRHRKESIVTAISQYFHFLYFDKSPADCFNFLDEEDKKAVIKKFENYVLKSVDPDVAKFLNFSSEQDDDESSDCIREYIVDLALIPVSQYHGEITDENIIEIGANTYVMVVIELNPFAPAATGSGLEHHHHHH | not soluble
3 | MEIFEKIRSLRKNHNLSQEEIADKINLSVSGYRKIENGKSRINHKRLEQIAEALEVSPLDLIPNSWRHGSSVYQVGKNGFYGDSSRAIEIELLKQQIKQEQLIKAKDETIEDKNRLISRLEEMLKILNT | not soluble
4 | MEIFLSDPISAECPCGPDLEYDPEYLLLFTRAAPREEAQYGDFVSTPENINWAELERDAHRLLMRSKDIRILVVLLRCRIQQAGARGLSEALTLLETLCSTYPDAIHPQLLATEDITAEDAAVARSNALAALLDHEGVMADIRGITLSNNAAMRLQVRDVERSLSALRPADALAPESVRQQLADLEARGTLPLDAFRQAAETTERLQRHARETLNDQAPDFSRLTQLLALLPGAVQSTTPEILPQPQAEQPENATIVHTEQMQAEQIALPVHIAEEISPMTGAEPRQIRDRNDALERLRVIRRWFEHSEPSSPTIPLLRQAERLVGKRVSEVINEIPVELLEKWDALE | not soluble
5 | MEIQFLGTGAGVPAKHRNVTGIALKLLDERNAVWLFDCGEGTQLQILKSSIRPRKIEKIFITHLHGDHIFGLPGLLSSRSFQGGTEPLEIYGPVGIADFVKTSLRVSQSRLSYPLKFIELTKENDVIFKDKQFTVRCNILDHGITSFGYRIEEAAHEGELQVEKLQALGIPSGPLYGKLKRGETIVFDGQEINGQAFVGERKPGRIVTILGDTRKTKNSVTLARRADVLVHESTFNKHEAKMAKAYFHSTSQQAAEVAKEAQVKQLILTHISARYLTKEAYQLQEEAQEIFPNTKIVKDMDIIEIPFANEGGA | not soluble
6 | MEISNVYVPPRSSSSNHARLMTDFSNIFQTKSKSIISGDVNAHHSAWHSEGSEDTRGRELAELIDLHPDLIIQNEQVHTRADTYSISSPDITICTADLATKCHWSTLYKLGSDHIPMKLKINQAATPKRPKRLVANFKKANWQLFRDHIESRINGYSGPMDAIPMEKFFNKVILEADKKAVPKGSIDPKLKVDPKPLRLLAKEIADRETRNPLDPEIPILTRELATKRAERKNSEWRKKAHDQNAKRKSDVSSFWKLIKGVTKGRQYKGPVAFGDGLPKTGATIANKMAKSLVEAGRTKISHDEELKWRKNVRRNKRISKIAPLQDRITSIELHNMAIKMSPSAAIGPDGIAQIHIRKLPMCGYSFLAYLYNVSLSTNIIPDKWKKANVIMIPKPKKDPAIASSYRPISLLSPIAKLLEKAILKRIKNSIESPAHQHGFKPEHSTTTAVIQVTNDIIGGLNMKNPPERAIMACLDLRAAFDKVPTKKLCNDLMEAQGIEPKIKLWLGNYLHKRLIRTSHDNHWSKWHTLLGGVPQGSVISPNLFTFYLKDMPTQQDTMLISYADDMSIIARDKKIEKAAEKVQLHIDEIAKYLKERGMSISAEKSTVTVFSCDPKEHKTKPDIYWMDDPIPVINAPKLLGITLNTMTGTKDHVGNAIKSMQNKTRVIKSMAGTSWGNDRETMLYTTQALIKPTALYGAPAWTSLLSDTNLEKLEIAYRSALRACVGLTKDTPTDHIYQECRVLPLKEEYKLATQQMYLAAIKSNTHPCRDLKAKGQLERTSKPPRIPPLKLSDSEKLRLDNIPGDKTETQKKNHTKLVADFIRNAPNNRILNKPPPRVNYRDERTLPKETRCELARLRCGHSLLVEKYKARLEERQIKKCLNCGDEEGDVQHLLSCLQTPVPLEELWTSPLTVAAALGLPTKTPFDPGGGH | not soluble
7 | MEKDHSSLFYYDQYSKFSRSSQGCRSLNKFSRFNNFRTSACFFDASKPKSDVQPFKKIRYSSEHGCLTMSFDSPSSCPSTSFLCDLSQNLVRGNAHIPKFYTRDLISTIGSRDHYSVDLIPKFGENTSIMKDFKDWGTDLSLQM | not soluble
8 | MEKDISRKIDLLNILIEEKRWFTLFELEKNLNCSSKTIRKDISIINDLLPKTIFIHSKKGKGVKLSLPQNQSISEAISNLLKKSLTFLAIQQLLEERSNTVTSLADKLYLPISSTNIVLKRVSKYIKKFGLSLEKKPLRIVGDEFQIILMFSERYLESYPDTEWPFTEYKEEMLIDYINYIEEKLEIVFYSNDKRRMAFIMTILFKRIKQGHKVKFSEWIIKETMESIYYKKIFEGKNVIKVNKNRSLNIEEQVLLVIMVKLSRYVSKDENNLKQEELVLYKEGESTTYTYVKNFISILEQELKIDLNNNEEFVYGMIEYCREAFHILKFIPILKAPEKDTCKYIKKHYEETFYLVKRAYNKWGAEMKLTDIPDEEIAKVTMRIVAIGKQHNINRKKVLLITGEGKSWEEYMKSRINKRYGDQLKFVGGHAKILNGNTDNIDNIDIDFIITTVPLNFSWKSIVYVSPILQERDFYEIGIFASK | not soluble
9 | MEKDLQLRVNEKLDVENILKDLDKYTPKRRGWTWRQPAENLQMGPFIYKDASTPLENSVALPSAKYFGDIDPQPLPVITTEIASGRFEDDIRRMRMAAWHGADHIMVIRTAGQSHYDGLIEGTPQGIGGVPITRKQVRAQRKALDLIEEEVGRPINYHSYVSGVAGPDIAVMFAEEGVNGAHQDPQYNVLYRNINMIRSFIDACESKTIMAWADMAQIDGAHNANATAREAWKVMPELMVQHALNSIFSLKVGMKKSNICLSTVPPTAPPAPSMYLDLPYAVALREMFEGYRMRAQMNTKYMEASTREATVTHVLNLLISKLTRADIQSTITPDEGRNVPWHIYNIEACDTAKQALIGMDGLMDMVQLKREGVLGDTVRELKERAVLFMEEIIEAGGYFNAVEQGFFVDSGYYPERNGDGIARQINGGIGAGTVFERDEDYMAPVTAHFGYNNVKQYDEALVSEPSKLIDGCTLEVPEKIVYIDELDENDNVNVRMEETKEFRHSSMIKPEVEWQADGTVLLTMFLPTSKRVAEFAAIEFAKKMNLEEVEVINREVMQEAEGTRIELKGRVPFSIDINSLVIPPEPEILSEDEIREDIEKTPLKIVAATVGEDEHSVGLREVIDIKHGGIEKYGVEVHYLGTSVPVEKLVDAAIELKADAILASTIISHDDIHYKNMKRIHELAVEKGIRDKIMIGCGGTQVTPEVAVKQGVDAGFGRGSKGIHVATFLVKKRREMREGKSEDPNSSSVDKLAAALEHHHHHH | soluble
10 | MEKEGFARLFHNFDNVIEPKLCSTSGSVPSYLKGTMLRNGPGMFEIGDTKYQHWFDGMGFIQRYHFEDGKMYYSARYLESENYKKNMEAQRIVTGSFGTASFPDPCKSIFSRFFSSFVQSEGIHDNANVAFAPVGDGLYACTETPNMHRVDLDSLDTLEPVDFSKYVALHTCTAHQLFDENGDVYNIGSRFGPDAAHVFTVTKNPKNLQSDSDRSWEHTTKIGEIRCSETFYPTYMHSFGMSENYLIMFESPIRIDIKKFIMKRFITTTFRDCMKWHADKDVKIFILNKKTGEQVPLKLKMAPFFTFHHANTFERDGCLVVDYCRIEQAGNFDALLIENMKTGNFQNDALFLPYLTRVIIPLSIPDGAQPGDDLLKPLGWAKGCSAIFQDDGKIRLKEKRVCDISMEFPRYHWEKINMKPYNYVYGSSVLGAQKSETLPGIVKADLENGDHKVWRRENDKQICGEPIFVPNPEGVREDDGILIVPVMTISDGQRPFVLILEAKNLTEIARYTIPEARIPLGFHAFYQGRT | not soluble
11 | MEKIIEVNSVSKTFKHKKAVNNVSFHVNKGEIVALLGPNGAGKTTTMSMMLGLKDPTEGTVSIFGKNPKHRDVRNSLGAMLQEVSVIDSITVEEAIELFRSYYTNPVAKETLLQLSNLELERKQRCEKLSGGQKRRLNFALALAGNPDLLFLDEPTVGMDITSRRTFWETIRKLVSEGKTIILTTHYLEEADALADRILLFVNGKIIADGTPDEMKATISRKTISFYSKESIPAKLLKELPNVTEVQAKEGHFTLTTEDTDATLKAIYQKNLPVTDVSVERGSLDEAFEQFVANQKEEIA | not soluble
12 | MEKISDLIECIAYEKNLPKEMISKVIQGCLLKMAQNELDPLARYLVVEENKQLQLIQLVEVLEDGDERLVNDPSKYISLSKAKEMDPSVKIKDELSYSLSLESMKQGAINRLFKDLQYQLEKALEDSHFEAFQKRLNSVLMGQVILVDHNQNTFIEIEQQFQGVLSMRHRIKGESFKVGDSIKAVLTQVKRTKKGLLLELSRTTPKMLEALLELEVPEIKDKEIEIIHCARIPGNRAKVSFFSHNARIDPIGAAVGVKGVRINAISNELNKENIDCIEYSNVPEIYITLALAPAKILSVEIKKIPIEELNAEEKESIQERFIVNNHLQKAKVRLLDIEKSKAIGKGGVNVCLASMLTGYHIEFETIPSVKENAENESEKETPKVGVEALESLFKN | not soluble
13 | MEKLLIEGGRALNGTIRVSGAKNSAVALIPATILADTPVTIGGVPNISDVKMLGDLLEEIGGRVTYGQEEEMVVDPSNMVAMPLPNGKVKKLRASYYLMGAMLGRFKKAVIGLPGGCHLGPRPIDQHIKGFEALGAHVTNEQGAIYLRADELRGARIYLDVVSVGATINIMLAAVRAKGRTVIENAAKEPEIIDVATLLTSMGARIKGAGTDVIRIDGVDSLHGCHHTIIPDRIEAGTYMILGAASGGEVTVDNVIPQHLESVTAKLREAGVQVETNDDQITVNGDRRLKVVDIKTLVYPGFPTDLQQPFTTLLTKAHGTGVVTDTIYGARFKHIDELRRMNAQIKVEGRSAIVTGPVLLQGAKVKASDLRAGAALVIAGLMADGITEVTGLEHIDRGYENIVDKLKGLGANIWREQMTKQEIEEMKNA | not soluble
14 | MEKLLQWSIANSQGDKEAMARAGQPDPKLLQQLFGGGGPDDPTLMKESMAVIMNPEVDLETKLVAFDNFEMLIENLDNANNIENLKLWEPLLDVLVQTKDEELRAAALSIIGTAVQNNLDSQNNFMKYDNGLRSLIEIASDKTKPLDVRTKAFYALSNLIRNHKDISEKFFKLNGLDCIAPVLSDNTAKPKLKMRAIALLTAYLSSVKIDENIISVLRKDGVIESTIECLSDESNLNIIDRVLSFLSHLISSGIKFNEQELHKLNEGYKHIEPLKDRLNEDDYLAVKYVL | soluble
